Consider eight molecules from patent publication US20230126400A1 (Alector, published 2023).

Assay [1] deals with T1, human MS4A4A ECL1 peptide (amino acid residues 86-98) (human).
T1 construct: synthetic peptide
T1 peptide: CMASNTYGSNPIS
Put plainly: array SPR.

In assay [2] the target is T2, human MS4A6A ECL1 peptide (amino acid residues 68-85) (human).
T2 peptide: SASFSPNFTQVTSTLLNS
The experiment in a line: array SPR.

Assay [3] concerns the target T3, human MS4A6A ECL2 peptide (amino acid residues 138-185) (human).
T3 peptide: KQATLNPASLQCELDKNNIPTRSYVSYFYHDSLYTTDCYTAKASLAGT
Put plainly: array SPR.

The target of assay [4] is T4, BSA-conjugated human MS4A4A ECL2 peptide (amino acid residues 159-179) (human, conjugated to BSA (site not stated)).
T4 construct: also called MS4A4A-ECL2 BSA conjugated peptide; BSA-MS4A4A-ELC2 peptide
T4 peptide: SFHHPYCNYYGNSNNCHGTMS
The experiment in a line: ELISA, hybridoma supernatant.

Assay [5] deals with T5, human MS4A4A ECL2 peptide (amino acid residues 159-179), free (human).
T5 construct: synthetic peptide; also called huMS4A4A-ELC2 free-peptide
T5 peptide: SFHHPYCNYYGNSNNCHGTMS
Put plainly: peptide ELISA, supernatant. Background: In an ELISA, binding on a coated surface is turned into a signal by an enzyme label.

The target of assay [6] is T6, cynomolgus (cyno) MS4A4A (cynomolgus).
T6 construct: also called cy4A; Cyno 4A
Put plainly: FACS, stably transfected cells. On the technique in general: A flow cytometer gives signals particle by particle.

The target in assay [7] is T7, human MS4A4A (human, UniProt Q96JQ5 1-239). Put plainly: FACS, U937 cells, supernatant; U937 cells overexpressing h4A. As for the experimental part:
(§1) Positive clones identified in Example 22 above were expanded and then rescreened for specificity against U937, K562, and/or 300.19 cells stably overexpressing human MS4A4A or cyno MS4A4A and parental U937, K562, and/or 300.19 cells. These experiments were performed using supernatants from hybridoma clones which had undergone further expansion after initial selection. Briefly, stably transfected cells were labeled with LIVE/DEAD Fixable Aqua Dead Cell Stain Kit (ThermoFisher Scientific Cat#L34957) on ice for 30 minutes. […] 2×10⁵ cells were aliquoted per well in 96-well U-bottom plates and incubated with 50 μl of culture supernatant on ice for 30 minutes. […] Following this secondary incubation, the cells were again washed twice with ice-cold FACS buffer and resuspended in a final volume of 200 μl of FACS buffer. Analysis was performed on a FACS Canto system (BD Biosciences), with gates drawn to exclude dead (Aqua-positive) cells.
(§2) The APC ratio was calculated for each antibody as follows. […] For cell lines overexpressing human MS4A4A (h4A) or cyno MS4A4A (cy4A), the ration was calculated by comparing the binding measured to the binding observed on the corresponding parental cell lines.

The target in assay [8] is T7, human MS4A4A. The experiment in a line: FACS, K562 cells, supernatant; K562 cells overexpressing h4A. As for the experimental part:
as §1, §2

Assay [9] addresses T1, human MS4A4A ECL1 peptide (amino acid …). The experiment in a line: peptide ELISA. In outline: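 Free or BSA-conjugated peptides were coated at 2 or 10 […] in 0.05M carbonate buffer, pH 9.6, overnight at 4 °C, then blocked 1 h with PBS+0.5% BSA+0.05% Tween20. Antibodies were bound 30 min at room temperature with shaking. TMB was developed 5-10 min, stopped, and absorbance read at 650 nm.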

Assay [10] deals with T6, cynomolgus (cyno) MS4A4A. The experiment in a line: FACS, HEK293, supernatant.
Assay [11] deals with T7, human MS4A4A. Put plainly: FACS, HEK293, supernatant.
The target in assay [12] is T1, human MS4A4A ECL1 peptide (amino acid …). The experiment in a line: ELISA, hybridoma supernatant. The gist of the method: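 Plates coated overnight at 4° C with 1-10 μg/ml free or BSA-conjugated peptide in carbonate buffer pH 9.6, blocked with PBS/0.5% BSA/0.05% Tween20. Antibodies (hybridoma supernatants) bound 30 min at room temperature with shaking; TMB development 5-10 min, stopped, absorbance read at 650 nm.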

For assay [13], the target named is T6, cynomolgus (cyno) MS4A4A. Put plainly: flow cytometry (anti-mouse IgG Fc-APC), hybridoma supernatant on 300.19 cells transfected with cyno MS4A4A. Here is the method: Flow cytometry was performed as follows. Briefly, transiently-transfected cells were labeled with LIVE/DEAD Fixable Aqua Dead Cell Stain Kit (ThermoFisher Scientific Cat#L34957) on ice for 30 minutes. […] 2×10⁵ cells were aliquoted per well in 96-well U-bottom plates and incubated with 50 μl of culture supernatant on ice for 30 minutes. […] Following this secondary incubation, the cells were again washed twice with ice-cold FACS buffer and resuspended in a final volume of 200 μl of FACS buffer. Analysis was performed on a FACS Canto system (BD Biosciences), with gates drawn to exclude dead (Aqua-positive) cells.

For assay [14], the target named is T4, BSA-conjugated human MS4A4A ECL2 …. The experiment in a line: ELISA, supernatant. Here is the method:
Briefly, 96-well polystyrene plates were coated with 1-10 μg/ml of synthetic free or BSA-conjugated peptides in coating buffer (0.05M carbonate buffer, pH9.6, Millipore Sigma C3041) overnight at 4° C. Coated plates were then blocked with ELISA diluent (PBS+0.5% BSA+0.05% Tween20) for 1-hour, washed 3×300 μL in PBST (PBS+0.05% Tween20, Thermo Cat#28352), and then the antibodies were added to the plate ([…]). After 30 mins incubation (room temperature, with shaking), the plates were washed 3×300 μL in PBST. […] After a final set of washes (3×300 μL in PBST), 50 μL of TMB substrate (BioFx TMBW-1000-01) was added and the reaction was then quenched after 5-10 mins with 50 μL of stop solution (BioFx BSTP-1000-01). The quenched reaction wells were detected for absorbance at 650 nm with a BioTek Synergy Microplate Reader using GENS 2.04 software.

In assay [15] the target is T7, human MS4A4A. The experiment in a line: FACS, K562 cells, supernatant. Here is the method: as §1, §2
Assay [16] concerns the target T7, human MS4A4A. Put plainly: FACS, U937 cells, supernatant. Here is the method:
as §1, §2

The target of assay [17] is T7, human MS4A4A. The experiment in a line: FACS, 300.19 cells, supernatant. As for the experimental part: as §1, §2
Assay [18] deals with T5, human MS4A4A ECL2 peptide (amino acid …). Put plainly: peptide ELISA.
The target in assay [19] is T6, cynomolgus (cyno) MS4A4A. Put plainly: FACS, 300.19 cells, supernatant. Here is the method: as §1, §2

B1: anti-MS4A4A antibody 4A-24 (antibody, V domains shown)
VH: EVKLEESGGGLVQPGGSMKLSCAASGFTFSDAWMDWVRQSPEKGLEWVAEIRDNADNHPTYYAESVKGRFTISRDDSKSSVYLQMNSLRAEDTGIYYCTSDYYGSHWGQGTTLTVSS
VL: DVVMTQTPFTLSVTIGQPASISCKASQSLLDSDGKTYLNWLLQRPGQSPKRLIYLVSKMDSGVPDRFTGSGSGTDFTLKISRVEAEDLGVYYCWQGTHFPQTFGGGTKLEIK
notes: murine hybridoma antibody
B1: the binding result in assay [1] is listed as “no binding (tested: 2000 nM)”; in assay [2], “no binding (tested: 2000 nM)”; in assay [3] it was “no binding (tested: 2000 nM)”; in [4], “no binding”.

B2: anti-MS4A4A antibody 4A-206 (murine) (antibody, V domains shown)
VH: EVKLVESGGGLVKPGGSLKLSCAASGFTFSSYTMSWVRQTPEKRLEWVASLSSGGSTYYPDSVKGRFTISRDNARNILYLQMSSLRSEDTAMYYCAKDYYVSSYRWYFDVWGAGTTVTVSS
VL: DIQMTQITSSLSASLGDRVTISCRASQDISNYLNWYQQKPDGTVKLLIYYTSNLHSGVPSRFSGSGSGTDYSLTISNLEQEDIATYFCQQGKSFPWTFGGGTKLEIK
notes: murine hybridoma antibody
As for B2, the binding result in assay [5] was “no binding”; in assay [6], “binds”; in [9], “no binding”. Further, the “fold increase in MFI” value in assay [7] and in assay [8] was more than 2 fold each time.

B3: anti-MS4A4A antibody 4A-14 (antibody, V domains shown)
VH: EVKLEESGGGLVQPGGSMKLSCAASGFTFSDAWLDWVRQSPEKGLEWVAEIRSKANDHATYYAESVKGRFTISRDDSKSRFYLQMNSLRAEDTGIYYCSVDYYGFFWGQGTLVTVSA
VL: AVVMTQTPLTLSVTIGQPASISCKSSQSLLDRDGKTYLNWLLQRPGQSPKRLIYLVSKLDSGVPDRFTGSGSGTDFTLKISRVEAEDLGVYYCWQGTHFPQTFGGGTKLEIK
notes: murine hybridoma antibody
For B3, the “Cyno 4A:parental cell ratio” value in [10] was 0.647 ratio. Besides, the “Human 4A:parental cell ratio” value in assay [11] was 4.2 ratio. Besides, the binding result in [2] is reported as “no binding (tested: 2000 nM)”; in assay [3], “no binding (tested: 2000 nM)”; in assay [12], “no binding”; in assay [13], “no binding”; in assay [14] it was “binds”.

B4: anti-MS4A4A antibody 4A-204 (antibody, V domains shown)
VH: DVKLVESGGGLAKLGGSLKLSCAASGFTFSSFYMSWVRQTPEKRLELVAAINSNGGSTYYPDSVKGRFTISRDNVKNTLYLQMSSLKSEDTAMYYCARHLYYGLYYAMDYWGQGTSVTVSS
VL: ENVLTQSPAIMSASPGEKVTMTCSASSSVSFMYWYQEKSSTSPKLWIYDTSKLASGVPGRFSGSGSGNSYSLTISSMGAEDVATYYCFQGSGFPLTFGSGTKLEIK
notes: murine hybridoma antibody
With B4, the binding result in [5] and in assay [9] was “no binding” each time. Also, the “fold increase in MFI” value in assay [7] and in assay [8] was more than 2 fold in each case.

B5: anti-MS4A4A antibody 4A-220 (antibody, V domains shown)
VH: EVQLQQSGPDLVKPGASVKISCKASGYSFNGYFMNWVMQSHGESLEWIGRINPYNGDTLYNQKFKGKATLTVDKSSSTGHMELRSLASEDSAVYYCARVKGYDYDGAMDYWGQGTSVTVSS
VL: DIVMTQSPDSLAVSLGERATINCRSSQSLLQSGNQKSSLAWYQQKPGQPPKLLIFWARTRQSGVPDRFSGSGSGTDFTLTISSVQAEDVAVYYCQQYSDTPFTFGQGTKLEIK
notes: murine hybridoma antibody
Turning to B5, the binding result in [5] and in assay [9] was “no binding” throughout. The “fold increase in MFI” value in assay [15], in [16] and in [17] was more than 2 fold each time.

B6: anti-MS4A4A antibody 4A-214 (antibody, V domains shown)
VH: EVKLEESGGGLVQPGRSMKLSCVASGFTFSNYWMNWVRQSPEKGLEWVAEIRLKSNNYATHYAESVKGRFTISRDDSKSSVYLQMNNLRAEDTGIYYCSSMIIVDYWGQGTTVTVSS
VL: DIVLTQSPASLTVSLGQRATISCRASQSVSSSTYSYLHWYQQRPGQPPKLLIKYASNLESGVPARFSGSGSGTVFTLNIHPVEEEDTATYYCQHSWEIPLTFGAGTKLEMK
notes: murine hybridoma antibody
In the case of B6, the “fold increase in MFI” value in assay [15], in assay [16], in [19] and in assay [17] was more than 2 fold in each case. The binding result in [18] is recorded as “binds”; in assay [9] it was “no binding”.

B7: anti-MS4A4A antibody 4A-213 (murine) (antibody, V domains shown)
VH: QVQLKESGPGLVAPSQSLSITCTVSGFSLTSYGVHWVRQPPGKGLEWLGVIWVGGSTNYNSALMSRLSISKDNSKSQVFLKMNSLQTDDTAMYYCARAVYYYGSSYYFDYWGQGTTVTVSS
VL: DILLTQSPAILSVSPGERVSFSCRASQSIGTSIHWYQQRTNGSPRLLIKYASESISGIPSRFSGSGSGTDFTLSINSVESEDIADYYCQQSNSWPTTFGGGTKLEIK
notes: murine hybridoma antibody
B7: the results for the binding result in assay [5], in [6] and in [9] were “no binding”, “binds” and “no binding”, respectively. The “fold increase in MFI” value in assay [8] is more than 2 fold.

B8: anti-MS4A4A antibody 4A-23 (antibody, V domains shown)
VH: EVQLQQSGPELVKPGASVKMSCQASGYTFTDYNIHWVKQSHGKSLKWIGYINPNNDDTTFNQKFKGKATLTVNKSSSTAYMELRSLTSEDSAVYYCARSPYCYFDVWGTGTTVTVSS
VL: DIQMTQSPSSLSASLGGKVTITCKASQDINKYIVWYQHKPGKGPRLLINYTSTLQPGIPSRFSGGGSGGDYSFSISNLEPEDIATYYCLQYDNLWTFGGGTKLEIK
notes: murine hybridoma antibody
Turning to B8, the “Cyno 4A:parental cell ratio” value in [10] worked out at 1.22 ratio. Besides, the “Human 4A:parental cell ratio” value in [11] amounted to 1.96 ratio. For the same molecule, the binding result in assay [1] is “no binding (tested: 2000 nM)”; in assay [2], “no binding (tested: 2000 nM)”; in assay [3], “no binding (tested: 2000 nM)”; in assay [13] it was “no binding”; in [14] it was “binds”.
